For data set [1], the target named is T1, VP40-WT (Δ43, HIS-tagged), purified RNA-free monomer/dimer (UniProt Q05128 44-326). Briefly: blue native gel.
Data set [2] addresses T1, VP40-WT (Δ43, HIS-tagged), purified …. Put plainly: 30 mM NaCl.
The target is the same in data set [3]. Put plainly: native MS.
Data set [4] shares this target.

Experimental findings from PMC8568338 (Cell reports, 2021) are described below.

Like-named read-outs stand apart in the source and are kept apart here.

B1: A36 DNA (ssDNA)
DNA: AAAAAAAAAAAAAAAAAAAAAAAAAAAAAAAAAAAA
Take B1: the binding result in data set [1] is “no binding”.

B2: HSP RNA (ssRNA)
RNA: UACAUUCCCAGCCUUUGUAGUGUUUUCGCCAAGCA
In the case of B2, the binding result in data set [2] is “binds”.

B3: S2R DNA (ssDNA)
DNA: TAAAATAATTTTATTGAAT
Regarding B3, the binding result in data set [3] is listed as “binds”.

B4: HSP18 DNA (ssDNA)
DNA: CAGCCTTTGTAGTGTTTT
With B4, the binding result in data set [4] is “binds”.

B5: HSP DNA (ssDNA)
DNA: TACATTCCCAGCCTTTGTAGTGTTTTCGCCAAGCA
Take B5: the binding result in data set [4] is “binds”.

B6: AGGGG DNA (ssDNA)
DNA: AGGGG
Turning to B6, in data set [4], the binding result is reported as “binds”.
